From IntAct's records for PubMed 25910212

B1: EF-hand domain-containing protein 1 (Homo sapiens), Q5JVL4 (parent)
chain: MVSNPVHGLPFLPGTSFKDSTKTAFHRSQTLSYRNGYAIVRRPTVGIGGDRLQFNQLSQAELDELASKAPVLTYGQPKQAPPADFIPAHVAFDKKVLKFDAYFQEDVPMSTEEQYRIRQVNIYYYLEDDSMSVIEPVVENSGILQGKLIKRQRLAKNDRGDHYHWKDLNRGINITIYGKTFRVVDCDQFTQVFLESQGIELNPPEKMALDPYTELRKQPLRKYVTPSDFDQLKQFLTFDKQVLRFYAIWDDTDSMYGECRTYIIHYYLMDDTVEIREVHERNDGRDPFPLLMNRQRVPKVLVENAKNFPQCVLEISDQEVLEWYTAKDFIVGKSLTILGRTFFIYDCDPFTRRYYKEKFGITDLPRIDVSKREPPPVKQELPPYNGFGLVEDSAQNCFALIPKAPKKDVIKMLVNDNKVLRYLAVLESPIPEDKDRRFVFSYFLATDMISIFEPPVRNSGIIGGKYLGRTKVVKPYSTVDNPVYYGPSDFFIGAVIEVFGHRFIILDTDEYVLKYMESNAAQYSPEALASIQNHVRKREAPAPEAESKQTEKDPGVQELEALIDTIQKQLKDHSCKDNIREAFQIYDKEASGYVDRDMFFKICESLNVPVDDSLVKELIRMCSHGEGKINYYNFVRAFSN
partner: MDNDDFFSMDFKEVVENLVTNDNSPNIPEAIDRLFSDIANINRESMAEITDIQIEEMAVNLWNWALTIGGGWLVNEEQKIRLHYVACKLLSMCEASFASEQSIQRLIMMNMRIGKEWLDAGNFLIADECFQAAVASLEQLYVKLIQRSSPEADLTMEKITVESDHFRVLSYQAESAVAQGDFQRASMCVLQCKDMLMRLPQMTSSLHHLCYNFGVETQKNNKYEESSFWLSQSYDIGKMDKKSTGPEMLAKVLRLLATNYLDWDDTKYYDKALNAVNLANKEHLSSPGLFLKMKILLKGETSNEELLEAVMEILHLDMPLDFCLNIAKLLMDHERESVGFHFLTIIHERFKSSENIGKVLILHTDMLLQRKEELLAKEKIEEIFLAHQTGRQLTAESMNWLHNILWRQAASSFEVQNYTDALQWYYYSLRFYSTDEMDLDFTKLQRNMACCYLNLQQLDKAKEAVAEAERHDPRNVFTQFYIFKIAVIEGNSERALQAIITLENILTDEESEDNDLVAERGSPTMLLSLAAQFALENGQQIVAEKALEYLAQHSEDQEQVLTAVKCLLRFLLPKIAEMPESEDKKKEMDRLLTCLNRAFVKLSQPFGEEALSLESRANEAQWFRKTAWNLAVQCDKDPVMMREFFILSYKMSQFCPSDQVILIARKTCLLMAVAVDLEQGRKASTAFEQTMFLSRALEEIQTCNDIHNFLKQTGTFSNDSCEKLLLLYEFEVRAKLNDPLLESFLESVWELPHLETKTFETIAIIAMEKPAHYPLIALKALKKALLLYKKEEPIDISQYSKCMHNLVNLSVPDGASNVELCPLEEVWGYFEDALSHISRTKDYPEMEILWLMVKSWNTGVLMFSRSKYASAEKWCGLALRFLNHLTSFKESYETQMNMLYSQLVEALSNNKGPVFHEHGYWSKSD
B2: CD151 antigen (Homo sapiens), P48509 (parent)
chain: MGEFNEKKTTCGTVCLKYLLFTYNCCFWLAGLAVMAVGIWTLALKSDYISLLASGTYLATAYILVVAGTVVMVTGVLGCCATFKERRNLLRLYFILLLIIFLLEIIAGILAYAYYQQLNTELKENLKDTMTKRYHQPGHEAVTSAVDQLQQEFHCCGSNNSQDWRDSEWIRSQEAGGRVVPDSCCKTVVALCGQRDHASNIYKVEGGCITKLETFIQEHLRVIGAVGIGIACVQVFGMIFTCCLYRSLKLEHY
B3: THAP domain-containing protein 1 (Homo sapiens), Q9NVV9 (parent)
chain: MVQSCSAYGCKNRYDKDKPVSFHKFPLTRPSLCKEWEAAVRRKNFKPTKYSSICSEHFTPDCFKRECNNKLLKENAVPTIFLCTEPHDKKEDLLEPQEQLPPPPLPPPVSQVDAAIGLLMPPLQTPVNLSVFCDHNYTVEDTMHQRKRIHQLEQQVEKLRKKLKTAQQRCRRQERQLEKLKEVVHFQKEKDDVSERGYVILPNDYFEIVEVPA
B4: Mitochondrial import inner membrane translocase subunit Tim8 A (Homo sapiens), O60220 (parent)
chain: MDSSSSSSAAGLGAVDPQLQHFIEVETQKQRFQQLVHQMTELCWEKCMDKPGPKLDSRAEACFVNCVERFIDTSQFILNRLEQTQKSKPVFSESLSD

Variants of: B1
Conditions: with TEX11, Q8IYF3-3

Variant	effect of a mutation on the interaction
P77T	with no effect
A394S	disrupting interaction strength
M448T	with no effect
T508R	with no effect
R221H	disrupting interaction strength
R159W	with no effect

Variants of: B2
Conditions: with astrc_human GRAMD1C

Variant	effect of a mutation on the interaction
R171C	disrupting interaction strength
R178H	with no effect

Variants of: B3
Conditions: with RALYL

Variant	effect of a mutation on the interaction
F81L	with no effect

Variants of: B3
Conditions: with nup62_human NUP62, P37198
Sequence of nup62_human NUP62, P37198 (P37198 whole entry): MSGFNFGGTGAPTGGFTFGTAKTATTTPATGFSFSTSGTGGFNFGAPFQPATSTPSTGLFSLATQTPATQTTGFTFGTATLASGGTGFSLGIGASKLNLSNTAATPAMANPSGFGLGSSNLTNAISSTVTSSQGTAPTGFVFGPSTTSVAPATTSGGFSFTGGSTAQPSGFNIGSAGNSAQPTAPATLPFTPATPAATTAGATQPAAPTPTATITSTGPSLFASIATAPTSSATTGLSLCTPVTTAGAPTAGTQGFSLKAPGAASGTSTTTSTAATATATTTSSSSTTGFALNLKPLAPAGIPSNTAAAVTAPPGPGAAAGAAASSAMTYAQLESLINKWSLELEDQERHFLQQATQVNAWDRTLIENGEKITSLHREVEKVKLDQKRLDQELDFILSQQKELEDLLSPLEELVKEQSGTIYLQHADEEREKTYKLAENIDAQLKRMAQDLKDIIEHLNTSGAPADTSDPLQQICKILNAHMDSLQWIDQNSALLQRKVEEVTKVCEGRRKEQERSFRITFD

Variant	effect of a mutation on the interaction
F81L	with no effect

Variants of: B4
Conditions: with stam2_human STAM2, O75886

Variant	effect of a mutation on the interaction
C66W	disrupting interaction strength
